Test results reported in US20130123462A1 (INDIANA UNIVERSITY RESEARCH AND TECHNOLOGY, published 2013).
Where two headings read alike, the source gives them in different places. Bridges are numbered along the chain shown (N, C = ends). Where no end group is shown, it is not given here. [ ]: non-standard residue; d: D form. PhLac = O=C(O)[C@@H](O)Cc1ccccc1

Tests used:
Test in all cases: cell-based or functional assay
GLP-1 receptor [1] = molecular target: T1, GLP-1 receptor (UniProt P43220 24-463, limits assumed)
glucagon receptor [2] = molecular target: T2, glucagon receptor (UniProt P47871 26-477, limits assumed)
T2 sequence (P47871 26-477 limits assumed): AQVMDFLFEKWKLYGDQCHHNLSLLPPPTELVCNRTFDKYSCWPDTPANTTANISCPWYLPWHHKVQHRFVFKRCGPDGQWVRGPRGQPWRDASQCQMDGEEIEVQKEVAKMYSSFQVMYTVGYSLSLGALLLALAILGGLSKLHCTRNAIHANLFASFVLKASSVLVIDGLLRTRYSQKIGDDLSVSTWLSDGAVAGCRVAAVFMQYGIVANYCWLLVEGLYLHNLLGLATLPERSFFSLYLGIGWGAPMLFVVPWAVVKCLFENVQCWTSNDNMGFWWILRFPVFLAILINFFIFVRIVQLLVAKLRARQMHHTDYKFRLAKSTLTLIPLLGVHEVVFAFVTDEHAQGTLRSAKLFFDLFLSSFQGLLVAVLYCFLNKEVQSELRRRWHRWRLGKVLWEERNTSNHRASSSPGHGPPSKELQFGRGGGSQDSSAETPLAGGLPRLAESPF

GLP-1 receptor [3] = molecular target: T1, GLP-1 receptor; remark: listed apart in the source
GLP-1 receptor [4] = molecular target: T1, GLP-1 receptor; remark: listed apart in the source
Target sequence in this assay (P43220 24-463 limits assumed): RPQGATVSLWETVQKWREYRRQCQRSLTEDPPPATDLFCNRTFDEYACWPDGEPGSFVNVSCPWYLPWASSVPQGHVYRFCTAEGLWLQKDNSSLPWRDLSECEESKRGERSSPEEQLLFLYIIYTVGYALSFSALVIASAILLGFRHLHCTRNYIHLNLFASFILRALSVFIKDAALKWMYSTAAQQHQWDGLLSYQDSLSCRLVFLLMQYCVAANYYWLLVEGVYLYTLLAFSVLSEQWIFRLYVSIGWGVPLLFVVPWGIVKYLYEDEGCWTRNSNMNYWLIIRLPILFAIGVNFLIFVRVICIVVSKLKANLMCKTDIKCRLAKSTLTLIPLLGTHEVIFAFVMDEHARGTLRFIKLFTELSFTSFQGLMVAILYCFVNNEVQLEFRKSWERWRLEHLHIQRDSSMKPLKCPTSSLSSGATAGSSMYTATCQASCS

glucagon receptor [5] = molecular target: T2, glucagon receptor; remark: listed apart in the source
glucagon receptor [6] = molecular target: T2, glucagon receptor; remark: listed apart in the source

Binder	GLP-1 EC50 (GLP-1 receptor [1]) [nM]	Glucagon IC50 (glucagon receptor [2]) [nM]	Glu IC50 (glucagon receptor [5]) [nM]	further results
GTFTSEYSKYLDERRAKDFVQWLMDT-NH2 (lactam 13-17; N-terminus assumed; SMILES CSCC[C@H](NC(=O)[C@H](CC(C)C)NC(=O)[C@H](Cc1c[nH]c2ccccc12)NC(=O)[C@H](CCC(N)=O)NC(=O)[C@@H](NC(=O)[C@H](Cc1ccccc1)NC(=O)[C@H](CC(=O)O)NC(=O)[C@@H]1CCCCNC(=O)CC[C@H](NC(=O)[C@H](CC(=O)O)NC(=O)[C@H](CC(C)C)NC(=O)[C@H](Cc2ccc(O)cc2)NC(=O)[C@H](CCCCN)NC(=O)[C@H](CO)NC(=O)[C@H](Cc2ccc(O)cc2)NC(=O)[C@H](CCC(=O)O)NC(=O)[C@H](CO)NC(=O)[C@@H](NC(=O)[C@H](Cc2ccccc2)NC(=O)[C@@H](NC(=O)CN)[C@@H](C)O)[C@@H](C)O)C(=O)N[C@@H](CCCNC(=N)N)C(=O)N[C@@H](CCCNC(=N)N)C(=O)N[C@@H](C)C(=O)N1)C(C)C)C(=O)N[C@@H](CC(=O)O)C(=O)N[C@H](C(N)=O)[C@@H](C)O) [[E9, E16K20(lactam), D28]G(4~29)]	151	10 to 30	–	–
FTSDYSKYLDERRAQDFVQWLMNTGPSSGAPPPS (lactam 7-11; not fully specified) [D9, K12E16(Lactam) Cex glucagon(6-39) (Table 13, peptide 4)]	–	–	828	GLP-1 EC50 (column without a head in this part of Table 15) (GLP-1 receptor [3]): 18 nM; GLP-1 EC50 (GLP-1 receptor [4]): 119 nM
FTSEYSKYLDERRAQDFVQWLMNTGPSSGAPPPS (lactam 7-11) [E9, K12E16(lactam) Cex glucagon(6-39) (Table 13, peptide 2)]	–	–	2010	GLP-1 EC50 (GLP-1 receptor [4]): 63 nM
FTSEYSKYLDERRAKDFVQWLMNTGPSSGAPPPS (lactam 11-15) [E9, E16K20(lactam) Cex glucagon(6-39) (Table 13, peptide 3)]	–	–	42	GLP-1 EC50 (GLP-1 receptor [4]): 36 nM
FTSEYSKYLDERRAQDFVQWLMNTGPSSGAPPPS [E9, K12, E16 Cex glucagon(6-39) (Table 13, peptide 1)]	–	–	762	–
HAEGTFTSEYSKYLDERRAKDFVQWLMDT-NH2 (lactam 16-20; N-terminus assumed; SMILES CSCC[C@H](NC(=O)[C@H](CC(C)C)NC(=O)[C@H](Cc1c[nH]c2ccccc12)NC(=O)[C@H](CCC(N)=O)NC(=O)[C@@H](NC(=O)[C@H](Cc1ccccc1)NC(=O)[C@H](CC(=O)O)NC(=O)[C@@H]1CCCCNC(=O)CC[C@H](NC(=O)[C@H](CC(=O)O)NC(=O)[C@H](CC(C)C)NC(=O)[C@H](Cc2ccc(O)cc2)NC(=O)[C@H](CCCCN)NC(=O)[C@H](CO)NC(=O)[C@H](Cc2ccc(O)cc2)NC(=O)[C@H](CCC(=O)O)NC(=O)[C@H](CO)NC(=O)[C@@H](NC(=O)[C@H](Cc2ccccc2)NC(=O)[C@@H](NC(=O)CNC(=O)[C@H](CCC(=O)O)NC(=O)[C@H](C)NC(=O)[C@@H](N)Cc2c[nH]cn2)[C@@H](C)O)[C@@H](C)O)C(=O)N[C@@H](CCCNC(=N)N)C(=O)N[C@@H](CCCNC(=N)N)C(=O)N[C@@H](C)C(=O)N1)C(C)C)C(=O)N[C@@H](CC(=O)O)C(=O)N[C@H](C(N)=O)[C@@H](C)O) [[A2E3, E16K20(Lactam), D28]G(1~29)]	0.2	–	–	Glucagon IC50 (PA = partial antagonist) (glucagon receptor [2]): 130 nM
[PhLac]TSDYSKYLDERRAQDFVQWLMDT-NH2 (lactam 7-11; N-terminus assumed; SMILES CSCC[C@H](NC(=O)[C@H](CC(C)C)NC(=O)[C@H](Cc1c[nH]c2ccccc12)NC(=O)[C@H](CCC(N)=O)NC(=O)[C@@H](NC(=O)[C@H](Cc1ccccc1)NC(=O)[C@H](CC(=O)O)NC(=O)[C@H](CCC(N)=O)NC(=O)[C@H](C)NC(=O)[C@H](CCCNC(=N)N)NC(=O)[C@H](CCCNC(=N)N)NC(=O)[C@@H]1CCC(=O)NCCCC[C@H](NC(=O)[C@H](CO)NC(=O)[C@H](Cc2ccc(O)cc2)NC(=O)[C@H](CC(=O)O)NC(=O)[C@H](CO)NC(=O)[C@@H](NC(=O)[C@@H](O)Cc2ccccc2)[C@@H](C)O)C(=O)N[C@@H](Cc2ccc(O)cc2)C(=O)N[C@@H](CC(C)C)C(=O)N[C@@H](CC(=O)O)C(=O)N1)C(C)C)C(=O)N[C@@H](CC(=O)O)C(=O)N[C@H](C(N)=O)[C@@H](C)O) [[PLA6, D9, K12E16(Lactam), D28]G(6-29)]	177	63	–	GLP-1 EC50 (GLP-1 receptor [3]): 21 nM; Glucagon IC50 (glucagon receptor [6]): 13 nM
[PhLac]TSDYSKYLDERRAKDFVEWLMDT-NH2 (lactam 15-19; N-terminus assumed; SMILES CSCC[C@H](NC(=O)[C@H](CC(C)C)NC(=O)[C@H](Cc1c[nH]c2ccccc12)NC(=O)[C@@H]1CCC(=O)NCCCC[C@H](NC(=O)[C@H](C)NC(=O)[C@H](CCCNC(=N)N)NC(=O)[C@H](CCCNC(=N)N)NC(=O)[C@H](CCC(=O)O)NC(=O)[C@H](CC(=O)O)NC(=O)[C@H](CC(C)C)NC(=O)[C@H](Cc2ccc(O)cc2)NC(=O)[C@H](CCCCN)NC(=O)[C@H](CO)NC(=O)[C@H](Cc2ccc(O)cc2)NC(=O)[C@H](CC(=O)O)NC(=O)[C@H](CO)NC(=O)[C@@H](NC(=O)[C@@H](O)Cc2ccccc2)[C@@H](C)O)C(=O)N[C@@H](CC(=O)O)C(=O)N[C@@H](Cc2ccccc2)C(=O)N[C@@H](C(C)C)C(=O)N1)C(=O)N[C@@H](CC(=O)O)C(=O)N[C@H](C(N)=O)[C@@H](C)O) [[PLA6, D9, E16, K20E24(Lactam), D28]G(6-29)]	239	74	–	–
AEGTFTSEYSKYLDERRAKDFVQWLMDT-NH2 (lactam 15-19) [[A2E3, E16K20(Lactam), D28]G(2~29)]	–	63	–	–
[PhLac]TSDYSKYLDERRAKDFVQWLMDT-NH2 (lactam 11-15) [[PLA6, D9, E16K20(lactam), D28]G(6-29)]	–	10 to 30	–	GLP-1 EC50 (GLP-1 receptor [3]): 4 nM; Glucagon IC50 (glucagon receptor [6]): 6 nM
FTSDYSKYLDSRRAQDFVQWLMDT (first residue is phenyl lactic acid (PLA)) [PLA 6, D9, D28 glucagon D9(6-29) analog (Table 15, peptide 7)]	–	–	–	GLP-1 EC50 (GLP-1 receptor [3]): ~700 nM
[PhLac]TSEYSKYLDERRAQDFVQWLMNTGPSSGAPPPS (lactam 7-11; not fully specified) [[PLA6, E9, K12E16(Lactam)] Cex glucagon(6-39) (Table 13, peptide 5)]	–	–	72	GLP-1 EC50 (GLP-1 receptor [4]): 6 nM
HSQGTFTSDYARYLDARRAREFIKWLVRGRG [ANK2 (Bayer peptide)]	0.28	–	–	–
[PhLac]TSDYSKYLDERRAQDFVEWLMKT-NH2 (lactam 19-23; N-terminus assumed; SMILES CSCC[C@@H]1NC(=O)[C@H](CC(C)C)NC(=O)[C@H](Cc2c[nH]c3ccccc23)NC(=O)[C@@H](NC(=O)[C@@H](NC(=O)[C@H](Cc2ccccc2)NC(=O)[C@H](CC(=O)O)NC(=O)[C@H](CCC(N)=O)NC(=O)[C@H](C)NC(=O)[C@H](CCCNC(=N)N)NC(=O)[C@H](CCCNC(=N)N)NC(=O)[C@H](CCC(=O)O)NC(=O)[C@H](CC(=O)O)NC(=O)[C@H](CC(C)C)NC(=O)[C@H](Cc2ccc(O)cc2)NC(=O)[C@H](CCCCN)NC(=O)[C@H](CO)NC(=O)[C@H](Cc2ccc(O)cc2)NC(=O)[C@H](CC(=O)O)NC(=O)[C@H](CO)NC(=O)[C@@H](NC(=O)[C@@H](O)Cc2ccccc2)[C@@H](C)O)C(C)C)CCC(=O)NCCCC[C@@H](C(=O)N[C@H](C(N)=O)[C@@H](C)O)NC1=O) [[PLA6, D9, E16, E24K28(lactam)]G(6~29)]	289	22	–	–
